Assay results reported in paper PMC10476280.
Several values for one entry are separate records, joined by “and”; a condition that tells them apart may be missing. Equal entries are not always repeated.

Tests used:
[1] = test system: Cse4(CENP-A)-GFP (Saccharomyces cerevisiae (W303, SBY3 derivative)); test: single-molecule TIRFM endpoint colocalization; conditions: yeast whole cell extract, single-molecule TIRFM on surface-tethered DNA; buffer, salt, pH and temperature not given in the material
[2] = test system: Scm3(HJURP) (Saccharomyces cerevisiae (W303, SBY3 derivative)); test: single-molecule TIRFM residence assay; conditions: yeast whole cell extract, single-molecule TIRFM on surface-tethered DNA; buffer, salt, pH and temperature not given in the material
[3] = test system: histone H3 (Saccharomyces cerevisiae (W303, SBY3 derivative)); test: single-molecule TIRFM endpoint colocalization; conditions: yeast whole cell extract, single-molecule TIRFM on surface-tethered DNA, buffer, salt, pH and temperature not given in the material
[4] = test system: Cse4(CENP-A)-GFP (Saccharomyces cerevisiae (W303, SBY3 derivative)); test: single-molecule TIRFM endpoint colocalization; conditions: yeast whole cell extract, single-molecule TIRFM on surface-tethered DNA, buffer, salt, pH and temperature not given in the material
[5] = test system: Ndc10-mCherry (CBF3 component) (Saccharomyces cerevisiae (W303, SBY3 derivative)); test: single-molecule TIRFM endpoint colocalization; conditions: WT extract; yeast whole cell extract, single-molecule TIRFM on surface-tethered DNA; buffer, salt, pH and temperature not given in the material

Substance	binding signal (% DNA colocalized) ([3]; low level)	binding signal (% DNA colocalized) ([4]; WT extract)	binding signal (% DNA colocalized) [4]	further results
CEN3 DNA (WT, ~750 bp)	5.5	50	19.3	binding signal (% DNA colocalized) [1]: 5 and 8; binding signal (residences per DNA (45 min)) [2]: 0.57; binding signal (% DNA colocalized) [5]: 70
Widom-601-CDEIII hybrid	4.1	–	3.1	–
Widom-601 DNA	–	–	–	binding signal (% DNA colocalized) [3]: 7.1
CEN9 DNA	–	22	–	–
alpha-sat CEN DNA	–	–	1.7	–
CEN7 DNA	–	18	–	–
